Sequences and labels used below:
B1: PD1-0102 (antibody, V domains shown)
VH: DVQLQESGPDLVKPSQSLSLTCTVTGYSITSGYSWHWIRQFPGNKLEWMGFIHSSGDTNYNPSLKSRISFTRDTSKNQFFLQLSSLTDEDTATYYCATYRNWYFDVWGAGTTVTVSS
VL: DIVMTQSPSSLTVTAGEKVTMRCKSSQSLLNSGTQKNYLTWYQQKPGQPPKLLIYWASTRESGVPNRFTGSGSGTDFTLTISSVQAEDLSVYYCQSDYTFPLTFGGGTKLELK
B2: PD1-0050 (antibody, V domains shown)
VH: DVQLQESGPGLVKPSQSLSLTCTVTGYSITSDYAWNWIRQFPGNKLEWMGYITYTGRTSYNPSLKSRISITRDTSKNQFFLQLNSVTTEDTATYYCAREMDYYGSTLDYWGQGTTLTVSS
VL: KIVLTQSPASLAVSLRQRATISCRASESVDRYGNSFIHWYQQKPGQPPKVLIYRASNLESGFPARFSGSGSRTDFTLTIDPVEADDAATYYCQQNNEDPYTFGSGTKLEIK
B3: PD1-0098 (antibody, V domains shown)
VH: DVQLQESGPGLVKPSQSLSLTCTVTGYSITSDYAWNWIRQFPGDKLEWLGYITYSGFTNYNPSLKSRISISRDTSKNQFFLQLNSVATEDTATYYCARWHGSAPWYFDYWGRGTTLTVSS
VL: DVLMTQTPLSLPVSLGDQASISCRSSQNIVHSDGNTYLEWYLQKPGQSPNLLIYKVSRRFSGVPDRFSGSGSGTDFTLKISRVEAEDLGVYYCFQGSHFPLTFGAGTKLELK
notes: Mouse hybridoma antibody
B4: PD1-0103 (antibody, V domains shown)
VH: EVILVESGGGLVKPGGSLKLSCAASGFSFSSYTMSWVRQTPEKRLDWVATISGGGRDIYYPDSVKGRFTISRDNAKNTLYLEMSSLMSEDTALYYCVLLTGRVYFALDSWGQGTSVTVSS
VL: KIVLTQSPASLPVSLGQRATISCRASESVDTSDNSFIHWYQQRPGQSPKLLIYRSSTLESGVPARFSGSGSRTDFTLTIDPVEADDVATYYCQQNYDVPWTFGGGTKLEIK
notes: Mouse hybridoma antibody; also called murine anti-PD1 antibody PD1-0103
B5: PD1-0073 (antibody, V domains shown)
VH: EVKLVESGGGLVKPGGSLKLSCAASGFTFSNYGMSWIRQTPEKGLEWVATISGGGRDTYYPDSVKGRFTISRDNVKNNLYLQMSSLRSEDTAFYYCASYYYGIDYWGQGTSVTVSS
VL: DIVMTQPHKFMSTSVGDRVRITCKASQDVTTAVAWYQQKPGQSPKLLIYWASTRHTGVPDRFTGSGSGTEFTLTISSVQAEDLALYYCQQHYSIPWTFGGGTKLEIK
B6: PD1-0069 (antibody, V domains shown)
VH: QVQLQQSGPELVRPGVSVKISCKGSGYTFTDYAMHWVKQSHARTLEWIGVISTYSGDTNYNQKFKDKATMTVDKSSSTAYLELARMTSEDSAIYYCARLGITTGFAYWGQGTLVTVSA
VL: DIVLTQSPASLAVSLGQRATISCRASKGVSTSSYSFMHWYQQKPRQPPKLLIKYASYLESGVPARFSGSGSGTDFTLNIHPVEEEDAATYYCHHSREFPWTFGGGTKLEIK
notes: Mouse hybridoma antibody

T2 sequence (Q15116 25-170): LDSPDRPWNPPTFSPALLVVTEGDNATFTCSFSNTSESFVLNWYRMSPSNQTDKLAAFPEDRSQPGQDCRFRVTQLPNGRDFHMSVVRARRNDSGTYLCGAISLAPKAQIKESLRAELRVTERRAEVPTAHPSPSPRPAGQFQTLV

In one assay the target is T1, biotinylated cynoPD1-ECD-Biotin (cynomolgus, UniProt B0LAJ3 25-170, biotinylated; the site and any Avi or His tag are not stated in the passages shown).
T1 construct: also called cyPD1
T1 sequence (B0LAJ3 entry or part of it limits assumed): as the sequence (Q15116 25-170) above, with D2E, P10A, V19L, T35A, Q75R, T144A counted along it
The assay can be described thus: ELISA on coated cynoPD1-ECD-Biotin. As to the method: After washing (3×90 μl/well with PBST-buffer) 25 μl/well goat-anti-human H+L-POD (JIR, JIR109-036-088) was added in 1:1000 dilution and incubated at RT for 1 h on shaker. After washing (3×90 μl/well with PBST-buffer) 25 μl/well TMB substrate (Roche, 11835033001) was added and incubated until OD 2-3. Measurement took place at 370/492 nm.
As usually defined, the EC50 is the concentration needed to bring the measured effect to its halfway point. In turn, B1 gave an EC50 of 0.0527 µg/mL.

Regarding B2, the EC50 came to 0.0098 µg/mL.

In turn, B3 came in with an EC50 of 0.0546 µg/mL.

On to B4, for which the concentration for a half-maximal effect (EC50) was determined as 0.0369 µg/mL.

B5: a half-maximal response (EC50) required 0.0083 µg/mL.

For B6, the midpoint of the response, the EC50, lay at 0.0227 µg/mL.

Another assay addresses T2, biotinylated PD1-ECD-AviHis (human, UniProt Q15116 25-170, biotinylated).
T2 construct: also called huPD1; hu PD1; not shown: Avi-His tag
The assay is described as follows: PD-L1 replacing ELISA on coated PD1-ECD-AviHis; competitor PD-L1 Fc chimera. Here is the method:
After washing (3×90 μl/well with PBST-buffer) 25 μl/well goat-anti-human H+L-POD (JIR, 109-036-088) was added in 1:1000 dilution and incubated at RT for 1 h on shaker. After washing (3×90 μl/well with PBST-buffer) 25 μl/well TMB substrate (Roche, 11835033001) was added and incubated until OD 2-3. Measurement took place at 370/492 nm.
(An ELISA detects its analyte on a solid surface through an enzyme-linked reagent.)
The IC50 is the point on the concentration scale where inhibition reaches its midpoint. Read a high IC50 as lower potency. Turning to B1, the IC50 is over 35.5 µg/mL.

B2 showed an IC50 of 0.128 µg/mL.

Molecule B3 gave a concentration for half-maximal inhibition (IC50) of 0.174 µg/mL.

With B4, the half-maximal inhibitory concentration (IC50) was determined as 0.182 µg/mL.

For B5, the IC50 was 0.124 µg/mL.

As to B6, the half-inhibitory concentration (IC50) is 0.225 µg/mL.

Another assay deals with T2, biotinylated PD1-ECD-AviHis. The assay can be described thus: PD-L2 replacing ELISA on coated PD1-ECD-AviHis; competitor PD-L2 Fc chimera. As to the method:
After washing (3×90 μl/well with PBST-buffer) 25 μl/well goat-anti-human H+L-POD (JIR, 109-036-088) was added in 1:2000 dilution and incubated at RT for 1 h on shaker. After washing (3×90 μl/well with PBST-buffer) 25 μl/well TMB (tetramethylbenzidine) substrate (Roche, #11835033001) was added and incubated until OD 2-3. Measurement took place at 370/492 nm.
B1 had a half-maximal inhibitory concentration (IC50) of 0.14 µg/mL.

The molecule B2 registered an IC50 of 0.034 µg/mL.

B3 gave an IC50 of 0.045 µg/mL.

As to B4, the half-inhibitory concentration (IC50) stood at 0.051 µg/mL.

Consider B5, for which the concentration for half-maximal inhibition (IC50) worked out at 0.065 µg/mL.

In the case of B6, the IC50 came to 0.089 µg/mL.

The next assay shares this target. The assay is described as follows: ELISA on coated biotinylated PD1-ECD-AviHis. Here is the method:
After washing (3×90 μl/well with PBST-buffer) 25 μl/well goat-anti-human H+L-POD (JIR, JIR109-036-088)/Sheep-anti-mouse-POD (GE Healthcare; NA9310) was added in 1:2000/1:1000 dilution and incubated at RT for 1 h on shaker. After washing (3×90 μl/well with PBST-buffer) 25 μl/well TMB substrate (Roche Catalogue No. 11835033001) was added and incubated until OD 2-3. Measurement took place at 370/492 nm.
In the case of B1, the midpoint of the response, the EC50, lay at 0.0342 µg/mL.

B2 gave a concentration giving a half-maximal response (EC50) of 0.0179 µg/mL.

B3 came in with an EC50 of 0.0508 µg/mL.

In turn, B4 yielded a 50% effective concentration (EC50) of 0.0337 µg/mL.

As to B5, the midpoint of the response, the EC50, lay at 0.0151 µg/mL.

Molecule B6 registered an EC50 of 0.0457 µg/mL.

Values taken from patent US20220387586A1 (Hoffmann-La Roche, published 2022).
